Test results taken from patent US20230265192A1 (GIGAGEN, published 2023).
Read-outs that look alike come from different tables or passages of the source.

How the values were obtained:
[1] = target: T1, His-tagged human CTLA-4 (CT4-H5229; Acro Biosystems) (human, UniProt P16410 36-161); assay: SPR (Carterra)
T1 construct: bought soluble protein; also called soluble human CTLA-4; recombinant human CTLA-4; not shown: His tag
Method: (§1) Then, goat anti-Human IgG Fc (Southern Biotech 2047-01) was coupled for 10 minutes at […] in 10 mM Sodim Acetate pH 4.5 (Carterra Inc.). The surface was then deactivated with 1 M ethanolamine pH 8.5 (Carterra Inc.). Running buffer used for the lawn immobilization was HBS-EPC (10 mM HEPES, 150 mM NaCl, 3 mM EDTA, 0.05% Tween 20, pH 7.4; Teknova).
(§2) The sensor chip was then transferred to a continuous flow microspotter (CFM; Carterra Inc.) for array capturing. The mAb supernatants were diluted 50-fold ([…] final concentration) into HBS-EPC with 1 mg/mL BSA. The samples were each captured twice with 15-minute and 4-minute capture steps on the first and second prints, respectively, to create multiple densities, using a […] flow rate. The running buffer in the CFM was also HBS-EPC.
(§3) Next, the sensor chip was loaded onto an SPR reader (MX-96 system; Ibis Technologies) for the kinetic analysis. CTLA-4 was injected at five increasing concentrations in a four-fold dilution series with concentrations of 1.95, 7.8, 31.25, 125, and 500 nM in running buffer (HBS-EPC with 1.0 mg/mL BSA). CTLA-4 injections were 5 minutes with a 15-minute dissociation at […] in a non-regenerative kinetic series. An injection of the goat anti-Human IgG Fc capture antibody at […] was injected at the end of the series to verify the capture level of each mAb. Binding data was double referenced by subtracting an interspot surface and a blank injection and analyzed for ka (on-rate), kd (off-rate), and KD (affinity) using the Kinetic Interaction Tool software (Carterra Inc.).

[2] = target: T1, His-tagged human CTLA-4 (CT4-H5229; …); assay: SPR (Carterra); remark: listed apart in the source
Method: as §1, §2, §3

[3] = target: T2, His-tagged cynomolgus CTLA-4 (CT4-C5227; Acro Biosystems) (cynomolgus, UniProt G7PL88 36-161); assay: BLI (Octet)
T2 construct: also called soluble cynomolgus CTLA-4; cyno CTLA-4
Method: The binding specificity and affinity of each full-length antibody towards CTLA-4 were determined using biolayer interferometry (BLI) and/or surface plasmon resonance (SPR). Anti-cyno CTLA-4 and anti-mouse CTLA-4 affinities were tested using ForteBio (BLI). Anti-human CTLA-4 affinities were measured using Carterra (SPR).
For BLI, antibodies were loaded onto an Anti-Human IgG Fc (AHC) biosensor using the Octet Red96 system (ForteBio). Loaded biosensors were dipped into antigen dilutions beginning at 300 nM, with 6 serial dilutions at 1:3. Kinetic analysis was performed using a 1:1 binding model and global fitting.

[4] = target: human CTLA-4 expressed on the cell surface (human, UniProt P16410 36-223); assay: cell-based or functional assay
Sequence of human CTLA-4 expressed on the cell surface (P16410 36-223 limits assumed): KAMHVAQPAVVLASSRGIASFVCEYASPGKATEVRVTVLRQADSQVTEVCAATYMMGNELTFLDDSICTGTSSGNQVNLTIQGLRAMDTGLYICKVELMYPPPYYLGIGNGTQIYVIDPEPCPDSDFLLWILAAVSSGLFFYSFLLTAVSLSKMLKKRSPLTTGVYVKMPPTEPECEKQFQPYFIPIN

T2 sequence (G7PL88 entry or part of it limits assumed, form in doubt): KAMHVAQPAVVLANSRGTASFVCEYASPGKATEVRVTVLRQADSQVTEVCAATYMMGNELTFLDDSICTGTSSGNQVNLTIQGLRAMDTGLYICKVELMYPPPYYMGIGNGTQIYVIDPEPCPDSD
T1 sequence (P16410 36-161 limits assumed): as the sequence (G7PL88 entry or part of it limits assumed, form in doubt) above, with N14S, T18I, M106L counted along it

| Kd [1] [nM] | Kd [2] [nM] | koff [2] [s⁻¹] | kon [2] [M⁻¹ s⁻¹] | Kd [3] [nM] | Promega assay % inhibition [4] [%] | Binder |
| --- | --- | --- | --- | --- | --- | --- |
| 120 | 120 | 0.0036 | 31000 | – | – | antibody A27 (L27H27) (antibody, V domains shown, also called aCTLA-4.8) VH: QVQLVQSGAEVKKPGASVKVSCKASGYTFTSYGISWVRQAPGQGLEWMGWISAYNGNTNYAQKLQGRVTMTTDTSTSTAYMELRSLRSDDTAVYYCGRWVRGVEYWGQGTLVTVSS VL: not shown |
| 31 | 31 | 0.00055 | 18000 | – | – | antibody A21 (L21H21) (antibody, V domains shown, also called aCTLA-4.10) VH: QVQLVESGGGVVQPGRSLRLSCAASGFTFSSYGMHWVRQAPGKGLEWVAVIWYDGNNKYYADSVKGRFTISRDNSKNTLYLHMNSLRADDTAVYYCARMLRGAPYYYGMDVWGQGTTVTVSS VL: not shown |
| 51 | 51 | 0.0034 | 66000 | 6.3 | 0 | antibody A17 (L17H17) (antibody, V domains shown, also called aCTLA-4.17) VH: EVQLVESGGGLVQPGGSLRLSCAASGFTFSNYAMSWVRQAPGKGLEWVSAISGGGLSTYYADSVKGRFTISRDNSKNTLYLQMNSLRAEDTAVYYCAKDLLWLGFDYWGQGTLVTVSS VL: DIQMTQSPSSLSASVGDRVTITCRASQAIRNDLGWYQQKPGKAPKRLIYAASSLQSGVPPRFSGSGSGTEFTLTISSLQPEDFATYYCLQHNSYPLTFGGGTKVEIK |
| 10 | 10 | 0.00073 | 70000 | 2.6 | 0 | antibody A15 (L15H15) (antibody, V domains shown, also called aCTLA-4.18) VH: QVQLVESGGGVVQPGRSLRLSCAASGFTFRSYGMHWVRQAPGKGLEWVAVIWYDGSNKHYADSVKGRFTISRDNSKNTLYLQMNSLRAEDTAVYYCARNGLIGAFDIWGQGTMVTVSS VL: not shown |
| 23 | 23 | 0.00072 | 31000 | 2.8 | 0 | antibody A16 (L16H16) (antibody, V domains shown, also called aCTLA-4.5) VH: QVQLVESGGGVVQPGRSLRLSCAASGFTFSSYGIHWVRQAPGKGLEWVAVIWYDGSNKYYADSVKGRFTISRDNSKNTLYLQMNSLRAEDTAVYYCARGSLLGPFDYWGQGTLVTVSS VL: DIQMTQSPSSLSASVGDRVTITCRASQGISNYLAWYQQKPGKVPKLLIYAASTLQSGVPSRFSGSGSGTDFTLTISSLQPEDVATYYCQNYNSAPWTFGQGTKVEIK |
| 74 | 74 | 0.00026 | 3500 | – | – | antibody A26 (L26H26) (antibody, V domains shown, also called aCTLA-4.20) VH: QVQLVQSGAEVKKPGASVKVSCKASDYTFTYYGISWVRQAPGQGLEWMGWISAYNGNTNYAQKLQGRVTMTTDTSTNTAYLELRSLRSDDTAVYYCARDYYDSSGYFDYWGQGTLVTVSS VL: not shown |
